B1: Apoptosis regulator ced-9 (Caenorhabditis elegans), P41958 (parent)
chain: MTRCTADNSLTNPAYRRRTMATGEMKEFLGIKGTEPTDFGINSDAQDLPSPSRQASTRRMSIGESIDGKINDWEEPRLDIEGFVVDYFTHRIRQNGMEWFGAPGLPCGVQPEHEMMRVMGTIFEKKHAENFETFCEQLLAVPRISFSLYQDVVRTVGNAQTDQCPMSYGRLIGLISFGGFVAAKMMESVELQGQVRNLFVYTSLFIKTRIRNNWKEHNRSWDDFMTLGKQMKEDYERAEAEKVGRRKQNRRWSMIGAGVTAGAIGIVGVVVCGRMMFSLK
partner: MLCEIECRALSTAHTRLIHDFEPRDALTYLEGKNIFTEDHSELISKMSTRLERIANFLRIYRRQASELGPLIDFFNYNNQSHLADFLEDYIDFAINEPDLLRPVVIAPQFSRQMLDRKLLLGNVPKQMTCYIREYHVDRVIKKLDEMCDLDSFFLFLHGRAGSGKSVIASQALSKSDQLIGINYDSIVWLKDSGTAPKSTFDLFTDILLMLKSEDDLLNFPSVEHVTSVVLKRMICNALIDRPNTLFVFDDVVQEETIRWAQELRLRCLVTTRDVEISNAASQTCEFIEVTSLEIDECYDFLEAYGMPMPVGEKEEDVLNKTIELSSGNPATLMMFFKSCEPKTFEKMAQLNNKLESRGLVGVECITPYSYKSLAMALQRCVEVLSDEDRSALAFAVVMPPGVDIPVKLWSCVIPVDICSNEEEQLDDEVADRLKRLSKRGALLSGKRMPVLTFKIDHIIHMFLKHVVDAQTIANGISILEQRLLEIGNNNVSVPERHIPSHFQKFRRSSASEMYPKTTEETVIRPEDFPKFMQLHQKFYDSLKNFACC
B2: Apoptosis regulator ced-9 (Caenorhabditis elegans), P41958 (parent)
chain: B1 chain
partner: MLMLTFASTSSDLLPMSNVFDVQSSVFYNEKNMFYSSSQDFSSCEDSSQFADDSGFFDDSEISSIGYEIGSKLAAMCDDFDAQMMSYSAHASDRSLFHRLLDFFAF

Variants of: B1
Conditions: with ced4_caeel ced-4, P30429

Row | Variant | effect of a mutation on the interaction
1 | MTRCTADNSLTNPAYRRRTMATGEMKEFLGIKGTEPTDFGINSDAQDLPSPSRQASTRRMSIGESIDGKINDWEEPRLDIEGFVVDYFTHRIRQNGMEWFGAPGLPCGVQPEHEMMRVMGTIFEKKHAENFETFCEQLLAVPRISFSLYQDVVRTVGNAQTDQCPMSYERLIGLISFGGFVAAKMMESVELQGQVRNLFVYTSLFIKTRIRNNWKEHNRSWDDFMTLGKQMKEDYERAEAEKVGRRKQNRRWSMIGAGVTAGAIGIVGVVVCGRMMFSLK [G169E] | with no effect

Variants of: B2
Conditions: with egl1_caeel egl-1, O61667

Row | Variant | effect of a mutation on the interaction
2 | MTRCTADNSLTNPAYRRRTMATGEMKEFLGIKGTEPTDFGINSDAQDLPSPSRQASTRRMSIGESIDGKINDWEEPRLDIEGFVVDYFTHRIRQNGMEWFGAPGLPCGVQPEHEMMRVMGTIFEKKHAENFETFCEQLLAVPRISFSLYQDVVRTVGNAQTDQCPMSYERLIGLISFGGFVAAKMMESVELQGQVRNLFVYTSLFIKTRIRNNWKEHNRSWDDFMTLGKQMKEDYERAEAEKVGRRKQNRRWSMIGAGVTAGAIGIVGVVVCGRMMFSLK [G169E] | with no effect

Variants of: B2
Conditions: with egl1_caeel egl-1, O61667
Remark: another data set of the same source

Row | Variant | effect of a mutation on the interaction
3 | MTRCTADNSLTNPAYRRRTMATGEMKEFLGIKGTEPTDFGINSDAQDLPSPSRQASTRRMSIGESIDGKINDWEEPRLDIEGFVVDYFTHRIRQNGMEWFGAPGLPCGVQPEHEMMRVMGTIFEKKHAENFETFCEQLLAVPRISFSLYQDVVRTVGNAQTDQCPMSYERLIGLISFGGFVAAKMMESVELQGQVRNLFVYTSLFIKTRIRNNWKEHNRSWDDFMTLGKQMKEDYERAEAEKVGRRKQNRRWSMIGAGVTAGAIGIVGVVVCGRMMFSLK [G169E] | decreasing interaction strength

— IntAct's records for PubMed 10846174
